Laboratory results reported in publication PMC4773402, “Comparison of the aggregation of homologous β2-microglobulin variants reveals protein solubility as a key determinant of amyloid formation” (Journal of Molecular Biology, 2016).

Target: the molecule itself
Experiment: AUC; sedimentation velocity, 25 °C, 48,000 rpm, 50 μM protein, pH 2.5 buffer with 0.3 M NaCl, absorbance at 280 nm, SEDFIT

B1: mouse β2-microglobulin (natural protein, UniProt P01887 21-119, looked up)
chain: IQKTPQIQVYSRHPPENGKPNILNCYVTQFHPPHIEIQMLKNGKKIPKVEMSDMSFSKDWSFYILAHTEFTPTETDTYACRVKHASMAEPKTVYWDRDM
notes: β2-microglobulin, mouse; In the AUC the protein was acid-unfolded at pH 2.5; also called mβ2m; source: expressed and prepared as described previously [47]; purified (anion exchange at pH 8.5, gel filtration), lyophilised
B1: binds.
